Experimental data taken from publication PMC6804253, “Predicting and Experimentally Validating Hot-Spot Residues at Protein–Protein Interfaces” (ACS Chemical Biology, 2019).
Positions count from the first letter of the chain named.

Key:
[1] = tested on: PPIs of the SKEMPI data set (by PDBID); experiment: SKEMPI experimental ΔΔG, single mutations to alanine; format: binding; settings: for sk_class (class of the SKEMPI experimental ΔΔG): class by the 4.184 kJ/mol threshold, r_group DERKH; for sk_class: class of the SKEMPI experimental ΔΔG
[2] = tested on: PPIs of the SKEMPI data set (by PDBID); settings: single mutation to alanine, ref SKEMPI, cited from earlier work; for sk_ddG_kJ (SKEMPI experimental ΔΔG, mutation to alanine) / sk_ddG_kJ: complex by PDBID; for sk_ddG_kJ (SKEMPI experimental ΔΔG, mutation to alanine): r_group DERKH; for sk_ddG_kJ: SKEMPI experimental ΔΔG of binding

1GC1 KC1A
sk_class (class of the SKEMPI experimental ΔΔG) [1]: Neutral (neutral (little effect) 4.184 kJ/mol < ΔΔG > −4.184 kJ/mol) | sk_ddG_kJ (SKEMPI experimental ΔΔG, mutation to alanine) ([2]; sheet sortedByGroup): 0.25 kJ

1GC1 KC8A
sk_class (class of the SKEMPI experimental ΔΔG) [1]: Neutral (neutral (little effect) 4.184 kJ/mol < ΔΔG > −4.184 kJ/mol) | sk_ddG_kJ (SKEMPI experimental ΔΔG, mutation to alanine) ([2]; sheet sortedByGroup): 0.46 kJ

1GC1 KC35A
sk_class (class of the SKEMPI experimental ΔΔG) [1]: Neutral (neutral (little effect) 4.184 kJ/mol < ΔΔG > −4.184 kJ/mol) | sk_ddG_kJ (SKEMPI experimental ΔΔG, mutation to alanine) ([2]; sheet sortedByGroup): 1.34 kJ

1GC1 RC59A
sk_class (class of the SKEMPI experimental ΔΔG) [1]: Positive (positive (a hot residue) ΔΔG ≥ 4.184 kJ/mol) | sk_ddG_kJ (SKEMPI experimental ΔΔG, mutation to alanine) ([2]; sheet sortedByGroup): 4.94 kJ

1GC1 VC86A
sk_class (class of SKEMPI experimental ΔΔG) ([1]; class by ΔΔG threshold 4.184 kJ/mol, ref SKEMPI): Neutral (neutral (little effect) 4.184 kJ/mol < ΔΔG > −4.184 kJ/mol) | sk_ddG_kJ (SKEMPI experimental ΔΔG) ([2]; PPI given by PDBID, sheet sortedByGroup, r_group FAMILYVW): -0.29 kJ

B1: 1IAR EA19A (protein, UniProt P05112 25-153, looked up, variant E19A)
Interleukin-4: HKCDITLQEIIKTLNSLTAQKTLCTELTVTDIFAASKNTTEKETFCRAATVLRQFYSHHEKDTRCLGATAQQFHRHKQLIRFLKRLDRNLWGLAGLNSCPVKEANQSTLENFLERLKTIMREKYSKCSS
sk_class (class of the SKEMPI experimental ΔΔG) [1]: Neutral (neutral (little effect) 4.184 kJ/mol < ΔΔG > −4.184 kJ/mol) | sk_ddG_kJ (SKEMPI experimental ΔΔG, mutation to alanine) ([2]; sheet sortedByGroup): -1.34 kJ

B2: 1IAR RA85A (protein, UniProt P05112 25-153, looked up, variant R85A)
Interleukin-4: B1 Interleukin-4 with A19E, R85A
sk_class (class of the SKEMPI experimental ΔΔG) [1]: Neutral (neutral (little effect) 4.184 kJ/mol < ΔΔG > −4.184 kJ/mol) | sk_ddG_kJ (SKEMPI experimental ΔΔG, mutation to alanine) ([2]; sheet sortedByGroup): 1.80 kJ

B3: 1IAR KA84A (protein, UniProt P05112 25-153, looked up, variant K84A)
Interleukin-4: B1 Interleukin-4 with A19E, K84A
sk_class (class of the SKEMPI experimental ΔΔG) [1]: Neutral (neutral (little effect) 4.184 kJ/mol < ΔΔG > −4.184 kJ/mol) | sk_ddG_kJ (SKEMPI experimental ΔΔG, mutation to alanine) ([2]; sheet sortedByGroup): 1.46 kJ

B4: 1IAR KA77A (protein, UniProt P05112 25-153, looked up, variant K77A)
Interleukin-4: B1 Interleukin-4 with A19E, K77A
sk_class (class of the SKEMPI experimental ΔΔG) [1]: Neutral (neutral (little effect) 4.184 kJ/mol < ΔΔG > −4.184 kJ/mol) | sk_ddG_kJ (SKEMPI experimental ΔΔG, mutation to alanine) ([2]; sheet sortedByGroup): 0.63 kJ

B5: 1IAR RA81A (protein, UniProt P05112 25-153, looked up, variant R81A)
Interleukin-4: B1 Interleukin-4 with A19E, R81A
sk_class (class of the SKEMPI experimental ΔΔG) [1]: Neutral (neutral (little effect) 4.184 kJ/mol < ΔΔG > −4.184 kJ/mol) | sk_ddG_kJ (SKEMPI experimental ΔΔG, mutation to alanine) ([2]; sheet sortedByGroup): 2.01 kJ

B6: 1DAN RU135A (protein, UniProt P13726 33-251, looked up, variant R135A)
extracellular domain: SGTTNTVAAYNLTWKSTNFKTILEWEPKPVNQVYTVQISTKSGDWKSKCFYTTDTECDLTDEIVKDVKQTYLARVFSYPAGNVESTGSAGEPLYENSPEFTPYLETNLGQPTIQSFEQVGTKVNVTVEDERTLVARNNTFLSLRDVFGKDLIYTLYYWKSSSSGKKTAKTNTNEFLIDVDKGENYCFSVQAVIPSRTVNRKSTDSPVECMGQEKGEFRE
modifications: extracellular domain
sk_class ([1]; ref SKEMPI): Neutral (neutral (little effect) 4.184 kJ/mol < ΔΔG > −4.184 kJ/mol) | sk_ddG_kJ [2]: 2.18 kJ

B7: 1DAN KU169A (protein, UniProt P13726 33-251, looked up, variant K169A)
extracellular domain: B6 extracellular domain with A135R, K169A
modifications: extracellular domain
sk_class ([1]; ref SKEMPI): Neutral (neutral (little effect) 4.184 kJ/mol < ΔΔG > −4.184 kJ/mol) | sk_ddG_kJ [2]: 0.50 kJ

B8: 1DAN RU136A (protein, UniProt P13726 33-251, looked up, variant R136A)
extracellular domain: B6 extracellular domain with A135R, R136A
modifications: extracellular domain
sk_class ([1]; ref SKEMPI): Neutral (neutral (little effect) 4.184 kJ/mol < ΔΔG > −4.184 kJ/mol) | sk_ddG_kJ [2]: -0.25 kJ

B9: 1DAN DU145A (protein, UniProt P13726 33-251, looked up, variant D145A)
extracellular domain: B6 extracellular domain with A135R, D145A
modifications: extracellular domain
sk_class ([1]; ref SKEMPI): Neutral (neutral (little effect) 4.184 kJ/mol < ΔΔG > −4.184 kJ/mol) | sk_ddG_kJ [2]: -0.04 kJ

B10: 1DAN EU208A (protein, UniProt P13726 33-251, looked up, variant E208A)
extracellular domain: B6 extracellular domain with A135R, E208A
modifications: extracellular domain
sk_class ([1]; ref SKEMPI): Neutral (neutral (little effect) 4.184 kJ/mol < ΔΔG > −4.184 kJ/mol) | sk_ddG_kJ [2]: 0.00 kJ

B11: 1DAN RU144A (protein, UniProt P13726 33-251, looked up, variant R144A)
extracellular domain: B6 extracellular domain with A135R, R144A
modifications: extracellular domain
sk_class ([1]; ref SKEMPI): Neutral (neutral (little effect) 4.184 kJ/mol < ΔΔG > −4.184 kJ/mol) | sk_ddG_kJ [2]: 0.00 kJ

B12: 1DAN RU196A (protein, UniProt P13726 33-251, looked up, variant R196A)
extracellular domain: B6 extracellular domain with A135R, R196A
modifications: extracellular domain
sk_class ([1]; ref SKEMPI): Neutral (neutral (little effect) 4.184 kJ/mol < ΔΔG > −4.184 kJ/mol) | sk_ddG_kJ [2]: 1.92 kJ

B13: 1EMV DA26A (protein, UniProt P13479 1-86, looked up, variant D26A)
Colicin-E9 immunity protein: MELKHSISDYTEAEFLQLVTTICNAATSSEEELVKLVTHFEEMTEHPSGSDLIYYPKEGDDDSPSGIVNTVKQWRAANGKSGFKQG
sk_class (class of the SKEMPI experimental ΔΔG) [1]: Neutral (neutral (little effect) 4.184 kJ/mol < ΔΔG > −4.184 kJ/mol) | sk_ddG_kJ (SKEMPI experimental ΔΔG, mutation to alanine) ([2]; sheet sortedByGroup): 1.42 kJ

B14: 1EMV DA60A (protein, UniProt P13479 1-86, looked up, variant D60A)
Colicin-E9 immunity protein: B13 Colicin-E9 immunity protein with A26D, D60A
sk_class (class of the SKEMPI experimental ΔΔG) [1]: Neutral (neutral (little effect) 4.184 kJ/mol < ΔΔG > −4.184 kJ/mol) | sk_ddG_kJ (SKEMPI experimental ΔΔG, mutation to alanine) ([2]; sheet sortedByGroup): 2.13 kJ

B15: 1EMV DA51A (protein, UniProt P13479 1-86, looked up, variant D51A)
Colicin-E9 immunity protein: B13 Colicin-E9 immunity protein with A26D, D51A
sk_class (class of the SKEMPI experimental ΔΔG) [1]: Positive (positive (a hot residue) ΔΔG ≥ 4.184 kJ/mol) | sk_ddG_kJ (SKEMPI experimental ΔΔG, mutation to alanine) ([2]; sheet sortedByGroup): 24.77 kJ

B16: 1EMV HA46A (protein, UniProt P13479 1-86, looked up, variant H46A)
Colicin-E9 immunity protein: B13 Colicin-E9 immunity protein with A26D, H46A
sk_class (class of the SKEMPI experimental ΔΔG) [1]: Neutral (neutral (little effect) 4.184 kJ/mol < ΔΔG > −4.184 kJ/mol) | sk_ddG_kJ (SKEMPI experimental ΔΔG, mutation to alanine) ([2]; sheet sortedByGroup): 3.47 kJ

B17: 1EMV EA41A (protein, UniProt P13479 1-86, looked up, variant E41A)
Colicin-E9 immunity protein: B13 Colicin-E9 immunity protein with A26D, E41A
sk_class (class of the SKEMPI experimental ΔΔG) [1]: Positive (positive (a hot residue) ΔΔG ≥ 4.184 kJ/mol) | sk_ddG_kJ (SKEMPI experimental ΔΔG, mutation to alanine) ([2]; sheet sortedByGroup): 8.70 kJ

B18: 1EMV EA32A (protein, UniProt P13479 1-86, looked up, variant E32A)
Colicin-E9 immunity protein: B13 Colicin-E9 immunity protein with A26D, E32A
sk_class (class of the SKEMPI experimental ΔΔG) [1]: Neutral (neutral (little effect) 4.184 kJ/mol < ΔΔG > −4.184 kJ/mol) | sk_ddG_kJ (SKEMPI experimental ΔΔG, mutation to alanine) ([2]; sheet sortedByGroup): 0.92 kJ

B19: 1EMV EA31A (protein, UniProt P13479 1-86, looked up, variant E31A)
Colicin-E9 immunity protein: B13 Colicin-E9 immunity protein with A26D, E31A
sk_class (class of the SKEMPI experimental ΔΔG) [1]: Neutral (neutral (little effect) 4.184 kJ/mol < ΔΔG > −4.184 kJ/mol) | sk_ddG_kJ (SKEMPI experimental ΔΔG, mutation to alanine) ([2]; sheet sortedByGroup): 1.30 kJ

B20: 1DFJ EI202A (protein, UniProt P10775 1-456, looked up, variant E202A)
Ribonuclease inhibitor: MNLDIHCEQLSDARWTELLPLLQQYEVVRLDDCGLTEEHCKDIGSALRANPSLTELCLRTNELGDAGVHLVLQGLQSPTCKIQKLSLQNCSLTEAGCGVLPSTLRSLPTLRELHLSDNPLGDAGLRLLCEGLLDPQCHLEKLQLEYCRLTAASCEPLASVLRATRALKELTVSNNDIGEAGARVLGQGLADSACQLETLRLANCGLTPANCKDLCGIVASQASLRELDLGSNGLGDAGIAELCPGLLSPASRLKTLWLWECDITASGCRDLCRVLQAKETLKELSLAGNKLGDEGARLLCESLLQPGCQLESLWVKSCSLTAACCQHVSLMLTQNKHLLELQLSSNKLGDSGIQELCQALSQPGTTLRVLCLGDCEVTNSGCSSLASLLLANRSLRELDLSNNCVGDPGVLQLLGSLEQPGCALEQLVLYDTYWTEEVEDRLQALEGSKPGLRVIS
sk_class ([1]; ref SKEMPI): Positive (positive (a hot residue) ΔΔG ≥ 4.184 kJ/mol) | sk_ddG_kJ [2]: 4.27 kJ

B21: 1DFJ EI283A (protein, UniProt P10775 1-456, looked up, variant E283A)
Ribonuclease inhibitor: B20 Ribonuclease inhibitor with A202E, E283A
sk_class ([1]; ref SKEMPI): Positive (positive (a hot residue) ΔΔG ≥ 4.184 kJ/mol) | sk_ddG_kJ [2]: 5.52 kJ

B22: 1DFJ EI340A (protein, UniProt P10775 1-456, looked up, variant E340A)
Ribonuclease inhibitor: B20 Ribonuclease inhibitor with A202E, E340A
sk_class ([1]; ref SKEMPI): Positive (positive (a hot residue) ΔΔG ≥ 4.184 kJ/mol) | sk_ddG_kJ [2]: 6.57 kJ

B23: 1DFJ KI316A (protein, UniProt P10775 1-456, looked up, variant K316A)
Ribonuclease inhibitor: B20 Ribonuclease inhibitor with A202E, K316A
sk_class ([1]; ref SKEMPI): Positive (positive (a hot residue) ΔΔG ≥ 4.184 kJ/mol) | sk_ddG_kJ [2]: 5.44 kJ

B24: 1DFJ EI397A (protein, UniProt P10775 1-456, looked up, variant E397A)
Ribonuclease inhibitor: B20 Ribonuclease inhibitor with A202E, E397A
sk_class ([1]; ref SKEMPI): Positive (positive (a hot residue) ΔΔG ≥ 4.184 kJ/mol) | sk_ddG_kJ [2]: 5.48 kJ

B25: 1DFJ DI431A (protein, UniProt P10775 1-456, looked up, variant D431A)
Ribonuclease inhibitor: B20 Ribonuclease inhibitor with A202E, D431A
sk_class ([1]; ref SKEMPI): Positive (positive (a hot residue) ΔΔG ≥ 4.184 kJ/mol) | sk_ddG_kJ [2]: 15.31 kJ

B26: 1DFJ RI453A (protein, UniProt P10775 1-456, looked up, variant R453A)
Ribonuclease inhibitor: B20 Ribonuclease inhibitor with A202E, R453A
sk_class ([1]; ref SKEMPI): Neutral (neutral (little effect) 4.184 kJ/mol < ΔΔG > −4.184 kJ/mol) | sk_ddG_kJ [2]: 3.56 kJ
